How the values were obtained:
[1] = molecular target: SARS-CoV-2 Wuhan-Hu-1 S on 293T cells (SARS-CoV-2 Wuhan-Hu-1, UniProt P0DTC2); experiment: flow cytometry on cells
NL63 S on 293T cells = NL63 S on 293T cells (Human coronavirus NL63 (HCoV-NL63)., UniProt Q6Q1S2); experiment: flow cytometry on cells
229E S on 293T cells = 229E S on 293T cells (Human coronavirus 229E (HCoV-229E)., UniProt P15423); experiment: flow cytometry on cells
[2] = molecular target: SARS-CoV-2 (2019-nCoV) S protein (S1+S2 ECD) (SARS-CoV-2 (2019-nCoV), UniProt P0DTC2); experiment: ELISA
[3] = molecular target: HCoV-OC43 S protein (S1+S2 ECD) (Human coronavirus OC43 (HCoV-OC43)., UniProt P36334); experiment: ELISA
[4] = molecular target: MERS-CoV S protein (S1+S2 ECD) (MERS-CoV; strain  in paper, …, UniProt K0BRG7); experiment: ELISA
[5] = molecular target: HCoV-NL63 S protein (S1+S2 ECD) (HCoV-NL63, strain not named (stand-in: …, UniProt Q6Q1S2)); experiment: ELISA
[6] = molecular target: HCoV-HKU1 (isolate N5) S protein (S1+S2 ECD) (Human coronavirus HKU1 (isolate N5) …, UniProt Q0ZME7); experiment: ELISA
[7] = molecular target: HCoV-229E S protein (S1+S2 ECD) (HCoV-229E, strain not named (stand-in: …, UniProt P15423)); experiment: ELISA
[8] = molecular target: T1, SARS-CoV-2 fusion peptide K811[…]825 (SARS-CoV-2); experiment: ELISA
T1 chain: KPSKRSFIEDLLFNK

[9] = molecular target: T1, SARS-CoV-2 fusion peptide K811[…]825; experiment: crystal structure

Measured: binding result

HCoV-OC43 S protein (S1+S2 ECD), sequence (P36334 14-1297): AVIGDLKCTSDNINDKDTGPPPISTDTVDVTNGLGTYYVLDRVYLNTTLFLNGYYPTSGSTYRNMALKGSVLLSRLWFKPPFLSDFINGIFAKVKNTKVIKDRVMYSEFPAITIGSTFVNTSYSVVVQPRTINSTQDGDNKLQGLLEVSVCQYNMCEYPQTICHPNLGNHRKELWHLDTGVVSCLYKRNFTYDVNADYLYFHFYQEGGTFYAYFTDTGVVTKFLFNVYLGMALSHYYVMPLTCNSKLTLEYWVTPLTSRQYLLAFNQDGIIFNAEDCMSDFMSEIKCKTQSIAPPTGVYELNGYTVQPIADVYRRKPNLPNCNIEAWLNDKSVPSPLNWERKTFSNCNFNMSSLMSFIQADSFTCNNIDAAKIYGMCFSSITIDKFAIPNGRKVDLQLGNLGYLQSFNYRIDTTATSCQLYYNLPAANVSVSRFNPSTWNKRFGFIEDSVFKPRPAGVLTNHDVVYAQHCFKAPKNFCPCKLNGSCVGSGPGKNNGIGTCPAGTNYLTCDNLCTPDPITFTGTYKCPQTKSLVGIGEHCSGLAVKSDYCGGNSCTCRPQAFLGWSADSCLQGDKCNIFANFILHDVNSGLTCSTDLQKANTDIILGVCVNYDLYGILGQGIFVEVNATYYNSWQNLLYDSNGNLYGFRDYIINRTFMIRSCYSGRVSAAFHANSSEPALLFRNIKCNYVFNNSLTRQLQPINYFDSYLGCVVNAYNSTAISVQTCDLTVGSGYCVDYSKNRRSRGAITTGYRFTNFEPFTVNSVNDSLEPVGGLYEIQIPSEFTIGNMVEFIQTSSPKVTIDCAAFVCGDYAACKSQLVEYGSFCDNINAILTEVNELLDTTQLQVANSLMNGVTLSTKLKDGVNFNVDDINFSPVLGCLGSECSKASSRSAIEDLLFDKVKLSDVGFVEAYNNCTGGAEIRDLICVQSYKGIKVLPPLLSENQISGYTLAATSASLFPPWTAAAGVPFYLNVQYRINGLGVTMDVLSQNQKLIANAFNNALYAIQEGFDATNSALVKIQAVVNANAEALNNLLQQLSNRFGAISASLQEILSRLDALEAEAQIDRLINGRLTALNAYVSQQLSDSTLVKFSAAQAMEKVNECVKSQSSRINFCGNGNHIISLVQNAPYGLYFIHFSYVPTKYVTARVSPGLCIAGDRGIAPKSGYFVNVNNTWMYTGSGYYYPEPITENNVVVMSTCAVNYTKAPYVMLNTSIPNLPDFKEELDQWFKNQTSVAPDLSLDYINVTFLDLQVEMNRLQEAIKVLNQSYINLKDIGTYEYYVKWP
HCoV-229E S protein (S1+S2 ECD) (HCoV-229E, strain not named, sequence (P15423 whole entry, looked up, the tested form may be a part): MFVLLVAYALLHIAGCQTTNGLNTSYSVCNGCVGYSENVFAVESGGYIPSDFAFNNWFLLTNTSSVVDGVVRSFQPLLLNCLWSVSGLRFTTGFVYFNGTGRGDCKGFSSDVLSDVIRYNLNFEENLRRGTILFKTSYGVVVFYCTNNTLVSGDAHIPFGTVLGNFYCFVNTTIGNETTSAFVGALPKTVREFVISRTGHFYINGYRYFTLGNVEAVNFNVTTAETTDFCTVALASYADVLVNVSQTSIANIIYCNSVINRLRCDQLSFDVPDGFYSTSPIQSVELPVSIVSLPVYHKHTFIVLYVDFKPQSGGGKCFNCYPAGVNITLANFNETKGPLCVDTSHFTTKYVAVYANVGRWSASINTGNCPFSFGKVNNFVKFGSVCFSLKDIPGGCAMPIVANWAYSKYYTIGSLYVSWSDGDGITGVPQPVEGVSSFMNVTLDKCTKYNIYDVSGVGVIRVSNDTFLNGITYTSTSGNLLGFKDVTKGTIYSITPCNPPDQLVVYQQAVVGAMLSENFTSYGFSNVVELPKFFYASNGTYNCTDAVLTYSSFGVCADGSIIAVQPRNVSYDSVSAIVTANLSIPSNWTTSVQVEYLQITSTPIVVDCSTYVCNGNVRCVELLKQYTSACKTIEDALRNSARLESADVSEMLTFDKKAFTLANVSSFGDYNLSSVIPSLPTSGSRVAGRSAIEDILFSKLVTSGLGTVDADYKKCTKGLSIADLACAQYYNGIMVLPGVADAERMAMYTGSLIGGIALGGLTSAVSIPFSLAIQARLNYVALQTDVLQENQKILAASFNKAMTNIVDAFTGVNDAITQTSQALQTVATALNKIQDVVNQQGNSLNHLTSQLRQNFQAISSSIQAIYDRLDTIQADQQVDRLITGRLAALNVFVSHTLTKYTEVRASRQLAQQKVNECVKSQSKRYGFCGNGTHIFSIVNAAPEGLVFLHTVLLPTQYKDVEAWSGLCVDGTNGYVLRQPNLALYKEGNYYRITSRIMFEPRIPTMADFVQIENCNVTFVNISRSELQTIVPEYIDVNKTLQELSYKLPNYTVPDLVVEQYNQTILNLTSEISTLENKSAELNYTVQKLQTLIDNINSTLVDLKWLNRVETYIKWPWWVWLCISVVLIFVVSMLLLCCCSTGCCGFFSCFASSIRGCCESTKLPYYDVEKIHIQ
NL63 S on 293T cells, sequence (Q6Q1S2 19-1356): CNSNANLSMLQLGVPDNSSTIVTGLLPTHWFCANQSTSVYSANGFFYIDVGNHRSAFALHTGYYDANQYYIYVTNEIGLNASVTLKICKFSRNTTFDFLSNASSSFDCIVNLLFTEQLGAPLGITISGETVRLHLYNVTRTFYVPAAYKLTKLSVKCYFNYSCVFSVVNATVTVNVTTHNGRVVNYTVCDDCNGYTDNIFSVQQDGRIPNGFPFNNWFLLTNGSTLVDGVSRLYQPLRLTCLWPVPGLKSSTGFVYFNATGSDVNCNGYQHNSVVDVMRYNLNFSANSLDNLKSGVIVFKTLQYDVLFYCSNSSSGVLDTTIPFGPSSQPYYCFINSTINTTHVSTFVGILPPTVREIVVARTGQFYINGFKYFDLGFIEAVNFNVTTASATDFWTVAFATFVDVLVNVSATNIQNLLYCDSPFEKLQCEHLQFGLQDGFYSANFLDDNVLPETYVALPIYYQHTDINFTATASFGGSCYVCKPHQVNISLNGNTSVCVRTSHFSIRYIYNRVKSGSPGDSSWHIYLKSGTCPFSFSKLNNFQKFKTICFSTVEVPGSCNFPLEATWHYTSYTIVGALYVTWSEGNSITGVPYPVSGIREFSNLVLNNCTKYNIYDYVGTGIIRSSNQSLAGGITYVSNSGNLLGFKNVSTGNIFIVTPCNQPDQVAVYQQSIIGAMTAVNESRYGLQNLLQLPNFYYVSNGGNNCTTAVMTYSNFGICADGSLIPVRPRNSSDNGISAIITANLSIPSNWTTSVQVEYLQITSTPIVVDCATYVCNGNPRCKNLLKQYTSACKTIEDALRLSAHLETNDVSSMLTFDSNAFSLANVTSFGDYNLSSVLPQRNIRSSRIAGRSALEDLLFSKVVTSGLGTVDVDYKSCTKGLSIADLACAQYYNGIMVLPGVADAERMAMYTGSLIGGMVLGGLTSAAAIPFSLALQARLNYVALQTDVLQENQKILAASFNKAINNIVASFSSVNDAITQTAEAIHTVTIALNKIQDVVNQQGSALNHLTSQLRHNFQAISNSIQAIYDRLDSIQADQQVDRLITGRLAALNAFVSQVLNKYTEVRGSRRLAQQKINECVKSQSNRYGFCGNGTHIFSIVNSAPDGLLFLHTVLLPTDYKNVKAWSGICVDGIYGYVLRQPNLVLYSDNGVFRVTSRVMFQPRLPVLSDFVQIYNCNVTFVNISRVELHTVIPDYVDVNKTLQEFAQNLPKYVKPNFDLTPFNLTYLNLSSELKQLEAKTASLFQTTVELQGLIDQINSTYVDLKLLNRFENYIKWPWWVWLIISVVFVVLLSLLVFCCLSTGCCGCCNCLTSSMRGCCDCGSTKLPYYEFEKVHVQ
HCoV-HKU1 (isolate N5) S protein (S1+S2 ECD), sequence (Q0ZME7 13-1295): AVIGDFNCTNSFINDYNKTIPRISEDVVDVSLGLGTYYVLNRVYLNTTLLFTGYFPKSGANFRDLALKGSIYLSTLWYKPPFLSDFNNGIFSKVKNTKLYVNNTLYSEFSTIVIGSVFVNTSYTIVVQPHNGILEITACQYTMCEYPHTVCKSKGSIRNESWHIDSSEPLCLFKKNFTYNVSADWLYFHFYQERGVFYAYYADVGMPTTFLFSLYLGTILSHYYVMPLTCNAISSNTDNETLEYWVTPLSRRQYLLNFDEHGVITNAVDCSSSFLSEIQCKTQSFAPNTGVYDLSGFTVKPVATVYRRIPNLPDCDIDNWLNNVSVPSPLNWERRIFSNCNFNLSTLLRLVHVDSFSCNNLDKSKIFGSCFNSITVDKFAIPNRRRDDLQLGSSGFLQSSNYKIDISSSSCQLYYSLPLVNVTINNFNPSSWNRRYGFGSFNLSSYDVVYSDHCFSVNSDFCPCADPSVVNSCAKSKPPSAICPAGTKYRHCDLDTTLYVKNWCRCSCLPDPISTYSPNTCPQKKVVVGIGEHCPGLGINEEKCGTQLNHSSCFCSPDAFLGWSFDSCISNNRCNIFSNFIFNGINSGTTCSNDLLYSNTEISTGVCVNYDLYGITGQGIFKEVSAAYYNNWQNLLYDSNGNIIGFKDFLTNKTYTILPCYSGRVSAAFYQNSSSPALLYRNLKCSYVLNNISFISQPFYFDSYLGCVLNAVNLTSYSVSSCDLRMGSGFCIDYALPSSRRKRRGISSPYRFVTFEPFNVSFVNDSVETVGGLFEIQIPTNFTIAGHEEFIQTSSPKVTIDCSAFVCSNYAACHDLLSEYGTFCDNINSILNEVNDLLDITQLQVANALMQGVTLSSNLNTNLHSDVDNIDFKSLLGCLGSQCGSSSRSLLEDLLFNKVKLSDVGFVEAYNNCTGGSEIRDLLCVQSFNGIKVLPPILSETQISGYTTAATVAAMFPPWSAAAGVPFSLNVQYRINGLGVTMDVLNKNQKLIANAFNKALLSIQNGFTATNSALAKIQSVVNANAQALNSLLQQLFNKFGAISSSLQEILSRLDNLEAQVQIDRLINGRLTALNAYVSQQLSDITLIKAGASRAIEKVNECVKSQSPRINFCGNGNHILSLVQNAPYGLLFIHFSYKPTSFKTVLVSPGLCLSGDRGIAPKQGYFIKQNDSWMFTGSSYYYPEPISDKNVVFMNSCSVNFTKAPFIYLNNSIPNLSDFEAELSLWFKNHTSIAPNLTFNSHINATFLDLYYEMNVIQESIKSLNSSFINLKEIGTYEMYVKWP

B1: C77G12 mAb (antibody, V domains shown)
VH: EVQLVESGGGVVQPGRSLRISCAVSGFTFGSYAMHWVRQAPGKGLEWVGVMSSDGHNEYYADSVKGRFTISRDNSRNKLYLEMNNLRVDDTAVFYCARGSDYVDDSPPLHYWGQGTLVTVSS
VL: DIQLTQSPSSLSASIGDRVTITCRASQDIANKLAWFQQAPGKAPKSLIYAASRLQSGVPSQFSGSGSGTDFTLTIESLQAGDFATYFCQQYDSFPFTFGPGTKVDVK
binds: [1] | NL63 S on 293T cells | 229E S on 293T cells | [2] | [3] | [4] | [5] | [6] | [7] | [8]

B2: C77G12 Fab (Fab, V domains shown)
VH: EVQLVESGGGVVQPGRSLRISCAVSGFTFGSYAMHWVRQAPGKGLEWVGVMSSDGHNEYYADSVKGRFTISRDNSRNKLYLEMNNLRVDDTAVFYCARGSDYVDDSPPLHYWGQGTLVTVSS
VL: DIQLTQSPSSLSASIGDRVTITCRASQDIANKLAWFQQAPGKAPKSLIYAASRLQSGVPSQFSGSGSGTDFTLTIESLQAGDFATYFCQQYDSFPFTFGPGTKVDVK
binds: [9]

B3: C13C9 mAb (antibody, V domains shown)
VH: EVQLVQSGPEVKKPGTSARVSCKASGFTSKNTALQWVRQARGQPLEWMGWIDISNYITNYAQKFRGRLTITWDLSASMAYMELSSLRSEDTAVYYCAAVGKDDDVLTGGNKYFDHWGQGTLVTVSS
VL: SYELTQPPSVSVSPGQTARITCSGDALPKKYAYWYQQKSGQAPVLVIHEDDKRPSGIPGRFSASSSGTTATLTISGAQVEDEADYYCYSTDTNDNHAFGSGTKLTVL
binds: [1] | NL63 S on 293T cells | 229E S on 293T cells | [2] | [3] | [4] | [5] | [6] | [7] | [8]

B4: C13C9 Fab (Fab, V domains shown)
VH: EVQLVQSGPEVKKPGTSARVSCKASGFTSKNTALQWVRQARGQPLEWMGWIDISNYITNYAQKFRGRLTITWDLSASMAYMELSSLRSEDTAVYYCAAVGKDDDVLTGGNKYFDHWGQGTLVTVSS
VL: SYELTQPPSVSVSPGQTARITCSGDALPKKYAYWYQQKSGQAPVLVIHEDDKRPSGIPGRFSASSSGTTATLTISGAQVEDEADYYCYSTDTNDNHAFGSGTKLTVL
binds: [9]

B5: VP12E7 mAb (antibody, V domains shown)
VH: QVQLVQSGGGVVQPGESLRLSCSGSGFTFNNYIMHWVRQAPGQGLDYVSGIGSDGRNTNYGDSVKGRFTISRDNSKDTLYLQMTSLRAEDTAFYYCVKGLDVLRFLDLSTPSGERLDAFDIWGQGTMVTVSS
VL: DIVMTQSPSFLSASVGDRVTITCRASQGISNYLAWYQQKPGKAPHLLIYAASTLQSGVPSRFSGSGSGTEFTLTISSLQPEDFATYYCQQLNSYPLFTFGPGTKVDIE
binds: [1] | NL63 S on 293T cells | 229E S on 293T cells | [2] | [3] | [4] | [5] | [6] | [7] | [8]

B6: VP12E7 Fab (Fab, V domains shown)
VH: QVQLVQSGGGVVQPGESLRLSCSGSGFTFNNYIMHWVRQAPGQGLDYVSGIGSDGRNTNYGDSVKGRFTISRDNSKDTLYLQMTSLRAEDTAFYYCVKGLDVLRFLDLSTPSGERLDAFDIWGQGTMVTVSS
VL: DIVMTQSPSFLSASVGDRVTITCRASQGISNYLAWYQQKPGKAPHLLIYAASTLQSGVPSRFSGSGSGTEFTLTISSLQPEDFATYYCQQLNSYPLFTFGPGTKVDIE
binds: [9]

B7: C13B8 mAb (antibody, V domains shown)
VH: QVQLQESGPGLVQPSQTLTLTCTVSGDSISNEDYHWTWIRQHPGKGLEWMGYLQYSGNTNYNPSLKSRMTISVDTSKNQFSLRLNSVTAADTAVYFCATSIVLTGMSNKIQPFDYWGQGTLVTVSS
VL: SYELTQPPSVSVSPGQMARITCSGEALPKKYAYWYQQKGGQFPVLVIYKDTERPSGIPERFSGSSSGTIVTLTISGVQPEDEADYYCLSADTSGTWVFGGGTKLTVL
binds: [1] | NL63 S on 293T cells | 229E S on 293T cells | [2] | [3] | [4] | [5] | [6] | [7] | [8]

B8: C13B8 Fab (Fab, V domains shown)
VH: QVQLQESGPGLVQPSQTLTLTCTVSGDSISNEDYHWTWIRQHPGKGLEWMGYLQYSGNTNYNPSLKSRMTISVDTSKNQFSLRLNSVTAADTAVYFCATSIVLTGMSNKIQPFDYWGQGTLVTVSS
VL: SYELTQPPSVSVSPGQMARITCSGEALPKKYAYWYQQKGGQFPVLVIYKDTERPSGIPERFSGSSSGTIVTLTISGVQPEDEADYYCLSADTSGTWVFGGGTKLTVL
binds: [9]

B9: VN01H1 mAb (antibody, V domains shown)
VH: EVQLVESGGGLVLPGGSLRLSCSASGFTFSDFSMHWVRQSPGKGLEYVSAITSSGSSTYYPDSVKGRFTISRDNSKNTLYLQMGSLRVEDTAVYWCVKNSDVFRFPHLYFDVWGRGTLVTVSS
VL: not shown
binds: [1] | NL63 S on 293T cells | 229E S on 293T cells | [2] | [3] | [4] | [5] | [6] | [7] | [8]

B10: VN01H1 Fab (Fab, V domains shown)
VH: EVQLVESGGGLVLPGGSLRLSCSASGFTFSDFSMHWVRQSPGKGLEYVSAITSSGSSTYYPDSVKGRFTISRDNSKNTLYLQMGSLRVEDTAVYWCVKNSDVFRFPHLYFDVWGRGTLVTVSS
VL: not shown
binds: [9]

From doi:10.1101/2022.03.30.486377 (bioRxiv, 2022)
